{"source": "the Human Domainome abundance scans (Beltran et al. 2025)", "parents": {"B1": {"name": "Glucocorticoid receptor, residues 419 to 494; numbered along this chain, P04150 (parent)", "chain": "KLCLVCSDEASGCHYGVLTCGSCKVFFKRAVEGQHNYLCAGRNDCIIDKIRRKNCPACRYRKCLQAGMNLEARKTK"}}, "note": "± gives the uncertainty stated by the source.", "data": [{"variants_of": "B1", "experiment": "abundance fitness (aPCA) (normalised: wild type 0, dead -1); higher = more abundant; growth selection in yeast, the domain comes from the species named", "settings": "Homo sapiens", "values": [{"variant": "KLCLVCSDEASGCHYGVLTCGSCKVFFKRAVEGQHHYLCAGRNDCIIDKIRRKNCPACRYRKCLQAGMNLEARKTK", "abundance fitness": "-0.042 ± 0.067"}, {"variant": "KLCLVCSDEASGCHYGVLTCGSCKVFFKRAVEGQHYYLCAGRNDCIIDKIRRKNCPACRYRKCLQAGMNLEARKTK", "abundance fitness": "-0.259 ± 0.13"}, {"variant": "KLCLVCSDEASGCHYGVLTCGSCKVFFKRAVEGQHAYLCAGRNDCIIDKIRRKNCPACRYRKCLQAGMNLEARKTK", "abundance fitness": "-0.012 ± 0.036"}, {"variant": "KLCLVCSDEASGCHYGVLTCGSCKVFFKRAVEGQHQYLCAGRNDCIIDKIRRKNCPACRYRKCLQAGMNLEARKTK", "abundance fitness": "-0.034 ± 0.056"}, {"variant": "KLCLVCSDEASGCHYGVLTCGSCKVFFKRAVEGQHFYLCAGRNDCIIDKIRRKNCPACRYRKCLQAGMNLEARKTK", "abundance fitness": "-0.006 ± 0.084"}, {"variant": "KLCLVCSDEASGCHYGVLTCGSCKVFFKRAVEGQHSYLCAGRNDCIIDKIRRKNCPACRYRKCLQAGMNLEARKTK", "abundance fitness": "0.022 ± 0.038"}, {"variant": "KLCLVCSDEASGCHYGVLTCGSCKVFFKRAVEGQHNYLCAGRNDPIIDKIRRKNCPACRYRKCLQAGMNLEARKTK", "abundance fitness": "-1.02 ± 0.16"}, {"variant": "KLCLVCSDEASGCHYGVLTCGSCKVFFKRAVEGQHNYLCAGRNDCIIDKIRRKNHPACRYRKCLQAGMNLEARKTK", "abundance fitness": "-0.911 ± 0.44"}, {"variant": "KLCLVCSDEASGCHYGVLTCGSCKVFFKRAVEGQHNYLCAGRNDCIIDKIRRKNFPACRYRKCLQAGMNLEARKTK", "abundance fitness": "-1.02 ± 0.3"}, {"variant": "KLCLVCSDEASGCHYGVLTCGSCKVFFKRAVEGQHNYLCAGRNDCIIDKIRRKNSPACRYRKCLQAGMNLEARKTK", "abundance fitness": "-0.707 ± 0.098"}, {"variant": "KLCLVCSDEASGCHYGVLTCGSCKVFFKRAVEGQHNYLCAGRNDCIIDKIRRKNCPACRPRKCLQAGMNLEARKTK", "abundance fitness": "-0.724 ± 0.12"}, {"variant": "KLCLVCSDEASGCHYGVLACGSCKVFFKRAVEGQHNYLCAGRNDCIIDKIRRKNCPACRYRKCLQAGMNLEARKTK", "abundance fitness": "-0.031 ± 0.038"}, {"variant": "KLCLVCSDEASGCHYGVLTCGSCKVFFKRAVEGQHNYLCAGRNDCIIDKIRRKNCPACRYRKCLQADMNLEARKTK", "abundance fitness": "-0.347 ± 0.12"}, {"variant": "KLCLVCSDEASGCHYGVLTCGSCKVFFKRAVEGQHNYLCAGQNDCIIDKIRRKNCPACRYRKCLQAGMNLEARKTK", "abundance fitness": "0.127 ± 0.049"}, {"variant": "KLCLVCSDEASGCHYGVLTCGSCKVFFKRAVEGQHNYLCAGRNDCIIDKIRRKNCPACFYRKCLQAGMNLEARKTK", "abundance fitness": "-0.513 ± 0.12"}, {"variant": "KLCLVCSDEASGCHYGVLTCGSCKVFFKRAVEGQHNYLCAGRNDCIIDKIRRKNCPACKYRKCLQAGMNLEARKTK", "abundance fitness": "-0.52 ± 0.078"}, {"variant": "KLCLVCSDEASGCHYGVLTCGSCKVFFKRAVEGQHNYLCAGRNDCIIDKIRRKNCPACWYRKCLQAGMNLEARKTK", "abundance fitness": "0.017 ± 0.037"}, {"variant": "KLCLVCSDEASGCHYGVLTCGSCKVFFKRAVEGQHNYLCAGRNDCIIDKIRRKNCPACRYRKILQAGMNLEARKTK", "abundance fitness": "-0.546 ± 0.23"}, {"variant": "KLCLVCSDLASGCHYGVLTCGSCKVFFKRAVEGQHNYLCAGRNDCIIDKIRRKNCPACRYRKCLQAGMNLEARKTK", "abundance fitness": "0.036 ± 0.033"}, {"variant": "KLCLVCSDEASGCHYGVLTCGSCKVFFKRAVEGQHNYLCAGRNQCIIDKIRRKNCPACRYRKCLQAGMNLEARKTK", "abundance fitness": "-0.026 ± 0.055"}, {"variant": "KLCLVCSDEASGCHYGVLTCGSCKVFFKRAVEGQHNYLCAGRNLCIIDKIRRKNCPACRYRKCLQAGMNLEARKTK", "abundance fitness": "-0.189 ± 0.045"}, {"variant": "KLCLVCSDEASGCHYGVLTCGSCKVFFKRAVEGQHNYLCAGRNFCIIDKIRRKNCPACRYRKCLQAGMNLEARKTK", "abundance fitness": "-0.381 ± 0.18"}, {"variant": "KLCLVCSDEASGCHYGVLTCGSCKVFFKRAVEGQHNYLCAGRNNCIIDKIRRKNCPACRYRKCLQAGMNLEARKTK", "abundance fitness": "-0.073 ± 0.1"}, {"variant": "KLCLVCSDEASGCHYGVLTCGSCKVFFKRAVEGQHNYLCAGRNDCIIDKIRRKNCPACRYRKCLQAGMNLIARKTK", "abundance fitness": "-0.016 ± 0.065"}, {"variant": "KLCLVCSDEASGCHYGVLTCGSCKVFFKRAVEGQHNYLCAGRNDCIIDKIRRKNCPACRYRKCLQAGMNLYARKTK", "abundance fitness": "-0.131 ± 0.081"}, {"variant": "KLCLVCSDEASGCHYGVLTCGSCKVFFKRAVEGQHNYLCAGRNDCIIDKIRRKNCPACRYRKCLQAGMNLHARKTK", "abundance fitness": "-0.09 ± 0.061"}, {"variant": "KLCLVCSDEASGCHYGVLTCGSCKVFFKRAVEGQHNYLCAGRNDCIIDKIRRKNCPACRYRKCLQSGMNLEARKTK", "abundance fitness": "-0.058 ± 0.039"}, {"variant": "KLCLVCSDEASGCHYGVLTCGSCKVFFKRAVEGQHNYLCASRNDCIIDKIRRKNCPACRYRKCLQAGMNLEARKTK", "abundance fitness": "-0.031 ± 0.039"}, {"variant": "KLCKVCSDEASGCHYGVLTCGSCKVFFKRAVEGQHNYLCAGRNDCIIDKIRRKNCPACRYRKCLQAGMNLEARKTK", "abundance fitness": "0.109 ± 0.044"}, {"variant": "KLCLVCSDEASGKHYGVLTCGSCKVFFKRAVEGQHNYLCAGRNDCIIDKIRRKNCPACRYRKCLQAGMNLEARKTK", "abundance fitness": "-0.018 ± 0.043"}, {"variant": "KLCLVCSDEASGRHYGVLTCGSCKVFFKRAVEGQHNYLCAGRNDCIIDKIRRKNCPACRYRKCLQAGMNLEARKTK", "abundance fitness": "-0.025 ± 0.031"}, {"variant": "KLCLVCSDEASGCHYGVLTCGSCKVFFKRAVEGQHNYLCAGRNDCIIDKIRRKNCPACRYRKCLQAGMNLEARKWK", "abundance fitness": "0.047 ± 0.052"}, {"variant": "KLCLVCSDEASGCHYGVLTCGSCKVFFKRSVEGQHNYLCAGRNDCIIDKIRRKNCPACRYRKCLQAGMNLEARKTK", "abundance fitness": "-0.08 ± 0.042"}, {"variant": "KLCLVCSDEASGCHYGVLTCGSCKVFFKRFVEGQHNYLCAGRNDCIIDKIRRKNCPACRYRKCLQAGMNLEARKTK", "abundance fitness": "-0.142 ± 0.099"}, {"variant": "KLCLVCSDEASGCHYGVLTCGSCKVFFKRAVEGQHNYLCAGRNDCIIDKIRRKNCPACRYRKCLQAGMNLEARKTM", "abundance fitness": "-0.023 ± 0.1"}, {"variant": "KLCLVCSDEASGCHYGVLTCGSCKVFFKRAVEGQHNYLCAGRNDCIIDKIRRYNCPACRYRKCLQAGMNLEARKTK", "abundance fitness": "-0.026 ± 0.066"}]}]}
